Data taken from publication PMC11869522, “Competitive displacement of lipoprotein lipase from heparan sulfate is orchestrated by a disordered acidic cluster in GPIHBP1” (Journal of Lipid Research, 2025).
Where no end group is shown, it is not given here. The star is where a group is joined. sulfate = O=S(=O)(O)*

Columns and labels:
[1] = tested on: bLPL; assay: Lipase activity assay, protection against spontaneous LPL inactivation; assay type: biochemical, bovine; details: 15 nM bLPL preincubated 20 min at 22°C with 1 μM synthetic peptide; Intralipid substrate, NEFA release 25 min; triplicates
Method: To determine lipase activity, 90 μl incubation mixture containing 166 mM NaCl, 28 U/ml heparin, 10% (w/v) fatty acid-free serum albumin, 250 mM Tris-HCl (pH 8.5), 0.16% intralipid, and 6% (v/v) chicken serum was mixed with 60 μl of sample buffer consisting of 150 mM NaCl, 0.1% (w/v) fatty acid-free serum albumin, 0.01% (v/v) Triton X-100, 10 mM HEPES (pH 7.4) and 15 nM bLPL. After 25 min incubation, non-esterified fatty acids (NEFA) released by LPL were quantified using the NEFA-HR kit according to manufacturer protocol (Wako Chemicals).
To address this question, we preincubated 15 nM purified bLPL for 20 min in the presence of 1 μM of synthetic peptides with different chain lengths and covering distinct regions of the first 33 residues in GPIHBP1 (supplemental Table S1). The residual bLPL activity was subsequently assessed by quantifying the release of non-esterified free fatty acids after a 25-min incubation with a lipid substrate emulsion (Intralipid) using the NEFA2-kit. […]
Fig. 2 LPL activity after incubation with synthetic peptides covering the acidic tail of GPIHBP^1–33 Purified bLPL (15 nM) was preincubated either alone or in the presence of 1 μM synthetic peptides or 150 nM GPIHBP1 for 20 min in 10 mM HEPES, 150 mM NaCl pH 7.4 at 22°C before LPL activity was assessed using Intralipid® as substrate. […]

[2] = tested on: hLPL bound to immobilized heparan sulfate; assay: GPIHBP1-mediated extraction of LPL from HSPGs (SPR, immobilized heparin dp4 fragments); assay type: binding, human; details: 12.5–200 nM GPIHBP1 proteins, 0.1–1.6 μM sulfated GPIHBP1^1–33, or GPIHBP1^34–131 with 1 μM sulfated GPIHBP1^1–33
From the text: To mimic electrostatic conditions found in the sub-endothelial spaces where surface-bound heparan-sulfate proteoglycans (HSPGs) are abundant, we designed a surrogate sensor surface using a streptavidin-coated CM5 sensor chip to capture high densities of biotinylated synthetic heparin dp4 fragments ([28], [29]). The reference surface was loaded with a neutral and non-sulfated fragment (M09 S00 from Iduron), while the active surface was loaded with a negatively charged fragment (M09 S08a from Iduron) containing N- and O-6-linked sulfations on each of the […] glucosamine residues in the DP4 fragment. Only the highly sulfated oligosaccharide bound LPL, and those interactions were transient with high off-rates. Despite the very transient nature of this binding, we created a stable reservoir of hLPL on the sensor surface by combining the fast kinetics of polyelectrolyte interactions with severe mass transport limitation—the latter phenomenon impedes LPL escape from the surface due to the fast rebinding that is favored by the high densities of immobilized heparin fragments (300 fmol/mm^2). For each experiment, 12.5 nM hLPL was loaded for 100 s at a flow rate of 20 μl/min in 10 mM Hepes (pH 7.4), 150 mM NaCl, 4 mM CaCl2, 10% (vol/vol) glycerol, 0.05% (vol/vol) surfactant P20, 1 mg/ml defatted BSA, […], and 0.05% (wt/vol) NaN3.
To compare the ability of GPIHBP1^1–131 and its charge variants to bind and extract hLPL from this dynamic reservoir, we injected twofold serial dilutions of 1.25–200 nM GPIHBP1^1–131; 1.25–200 nM GPIHBP1^Cluster1-neutral; GPIHBP1^Cluster2-neutral; 1.25–200 nM GPIHBP1^34–131; 0.1–1.6 μM GPIHBP1^1–33 with Tyr^18–SO4; or 1.25–200 nM GPIHBP1^34–131 in the presence of 1 μM sulfated GPIHBP1^1–33 for 250 s at 20 μl/min in 10 mM Hepes (pH 7.4), 150 mM NaCl, 4 mM CaCl2, 10% (vol/vol) glycerol, 0.05% (vol/vol) surfactant P20, 0.2 mg/ml fatty acid-free BSA, and 0.05% (wt/vol) NaN3. At the end of each cycle, two consecutive injections of 10 μl 3 M guanidinium chloride regenerated the chip.
GPIHBP1’s ability to displace LPL from its HSPG-bound state in the sub-endothelial spaces is essential for the trans-endothelial trafficking of LPL to the luminal surface of capillary cells ([29]). The importance of the acidic tail in this process is supported by solid evidence from surrogate in vitro models and in vivo studies in gene-edited mice ([28], [29]). It was therefore important to determine the relative impact of the two charge-clusters in GPIHBP1 on their ability to disrupt LPL•HSPG interactions. To gain this insight, we measured the ability of different GPIHBP1 charge variants to displace hLPL from a SPR sensor chip surface coupled with a high density of immobilized small heparin-like fragments ([28]). […]

[3] = target: T1, Human LPL (lipoprotein lipase) (human, UniProt P06858 28-475, R324A); assay: cell-based or functional assay
T1 sequence (looked up): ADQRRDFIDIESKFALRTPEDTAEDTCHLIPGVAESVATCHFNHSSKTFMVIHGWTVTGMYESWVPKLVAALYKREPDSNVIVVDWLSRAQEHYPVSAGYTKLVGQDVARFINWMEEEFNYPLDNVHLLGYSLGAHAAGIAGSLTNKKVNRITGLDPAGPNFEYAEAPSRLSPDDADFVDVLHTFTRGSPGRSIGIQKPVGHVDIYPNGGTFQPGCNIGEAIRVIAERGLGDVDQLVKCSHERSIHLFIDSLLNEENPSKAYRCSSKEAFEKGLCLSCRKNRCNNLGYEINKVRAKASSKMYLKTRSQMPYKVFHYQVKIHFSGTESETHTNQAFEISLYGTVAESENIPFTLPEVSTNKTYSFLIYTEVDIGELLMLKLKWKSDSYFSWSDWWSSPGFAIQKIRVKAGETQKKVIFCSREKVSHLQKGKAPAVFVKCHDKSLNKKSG

[4] = target: T2, Bovine LPL (bovine, UniProt P11151 29-478); assay: native gel or EMSA; native PAGE of purified GPIHBP1 charge variants with hLPL, bLPL or mLPL (supplemental Fig. S1); details: both partners purified
T2 construct: also called bLPL; source: purified from fresh bovine milk
T2 sequence (looked up): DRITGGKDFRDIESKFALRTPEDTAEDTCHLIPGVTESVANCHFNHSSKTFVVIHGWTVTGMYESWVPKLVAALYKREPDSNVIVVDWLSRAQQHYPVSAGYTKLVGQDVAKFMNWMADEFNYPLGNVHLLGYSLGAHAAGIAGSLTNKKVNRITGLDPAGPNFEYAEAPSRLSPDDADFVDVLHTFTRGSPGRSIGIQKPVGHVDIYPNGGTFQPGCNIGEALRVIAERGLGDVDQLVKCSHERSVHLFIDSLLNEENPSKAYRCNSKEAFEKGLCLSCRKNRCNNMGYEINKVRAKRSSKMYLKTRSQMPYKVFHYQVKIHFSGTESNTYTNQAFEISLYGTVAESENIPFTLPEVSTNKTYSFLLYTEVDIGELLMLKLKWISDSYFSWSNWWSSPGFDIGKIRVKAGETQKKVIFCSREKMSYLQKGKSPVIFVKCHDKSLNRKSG

| Molecule | preserving bLPL activity against spontaneous inactivation [1] | competitive displacement of HSPG-bound hLPL (in words) [2] | reduction in hLPL levels on the heparan sulfate sensor surface after GPIHBP1 injections (12.5–200 nM), SPR [3] [%] | binding result [4] |
| --- | --- | --- | --- | --- |
| GPIHBP1^1–33: Synthetic peptide representing the N-terminal acidic tail of GPIHBP1, first 33 residues (QTQQEEEEEDEDHGPDDYDEEDEDEVEEEETNR; UniProt Q8IV16 21-53, looked up, fragment) | as efficient as 150 nM GPIHBP1^1–131 | neither GPIHBP1^34–131 nor GPIHBP1^1–33 alone, or in combination, induced any detachment of LPL | – | – |
| sulfated GPIHBP1^1–33: GPIHBP1^1–33 peptide carrying a tyrosyl-sulfation (Tyr^18) (QTQQEEEEEDEDHGPDDY(sulfate)DEEDEDEVEEEETNR; UniProt Q8IV16 21-53, looked up, fragment) | – | not perturbed | – | – |
| GPIHBP1^1–131/R38G (domain or fragment, human, UniProt Q8IV16 21-151, looked up, sulfated Tyr18; one bi-antennary N-linked glycosylation) QTQQEEEEEDEDHGPDDYDEEDEDEVEEEETNRLPGGGSRVLLRCYTCKSLPRDERCNLTQNCSHGQTCTTLIAHGNTESGLLTTHSTWCTDSCQPITKTVEGTQVTMTCCQSSLCNVPPWQSSRVQDPTG | – | – | 68.1 | – |
| GPIHBP1^Cluster1-neutral (domain or fragment, human, UniProt Q8IV16 21-151, looked up, Tyr18 sulfation present in less than 40%; one bi-antennary N-linked glycosylation, Construct from VectorBuilder Inc; source: Drosophila S2-cells, secreted, purified, D3 tag removed; not shown: uPAR domain III, N-terminal, cleaved) QTQQQQQQQNQNHGPNNYDEEDEDEVEEEETNRLPGGGSRVLLRCYTCKSLPRDERCNLTQNCSHGQTCTTLIAHGNTESGLLTTHSTWCTDSCQPITKTVEGTQVTMTCCQSSLCNVPPWQSSRVQDPTG | – | – | 34.8 | binds |
| GPIHBP1^Cluster2-neutral (domain or fragment, human, UniProt Q8IV16 21-151, looked up, Tyr18 sulfation absent; one bi-antennary N-linked glycosylation, Construct from VectorBuilder Inc; source: Drosophila S2-cells, secreted, purified, D3 tag removed; not shown: uPAR domain III, N-terminal, cleaved) QTQQEEEEEDEDHGPDDYNQQNQNQVQQQQTNRLPGGGSRVLLRCYTCKSLPRDERCNLTQNCSHGQTCTTLIAHGNTESGLLTTHSTWCTDSCQPITKTVEGTQVTMTCCQSSLCNVPPWQSSRVQDPTG | – | – | 1.2 | binds |
